Reference: patent US20240076387A1 (published 2024)
Substitutions are numbered along the chain they refer to. “And” between values parts separate entries of the source, which are not always exact repeats. Equal values may be shown once. Values belong to the binder of their own block, whether it stands above or below them.

Legend:
[1] = target: T1, Flt-1 antigen (species not stated) (Homo sapiens (Human), UniProt P17948 27-656); test: Biacore
T1 construct: also called sFlt-1; soluble Flt-1

[2] = target: T1, Flt-1 antigen (species not stated at …); test: surface plasmon resonance (Biacore), EXP 1
[3] = target: T1, Flt-1 antigen (species not stated at …); test: off-rate of Fabs, method not stated
[4] = target: T1, Flt-1 antigen (species not stated at …); test: surface plasmon resonance (Biacore), EXP 2
[5] = target: T1, Flt-1 antigen (species not stated at …); test: kinetics, method not stated (Table 7)
[6] = target: T1, Flt-1 antigen (species not stated at …); test: kinetics of Table 7; 'increased' is said of a higher affinity (lower KD)
[7] = target: T1, Flt-1 antigen (species not stated at …); test: surface plasmon resonance (Biacore); reference not named

T1 sequence (P17948 other isoform, or with tags, fused parts or gaps limits assumed, form in doubt): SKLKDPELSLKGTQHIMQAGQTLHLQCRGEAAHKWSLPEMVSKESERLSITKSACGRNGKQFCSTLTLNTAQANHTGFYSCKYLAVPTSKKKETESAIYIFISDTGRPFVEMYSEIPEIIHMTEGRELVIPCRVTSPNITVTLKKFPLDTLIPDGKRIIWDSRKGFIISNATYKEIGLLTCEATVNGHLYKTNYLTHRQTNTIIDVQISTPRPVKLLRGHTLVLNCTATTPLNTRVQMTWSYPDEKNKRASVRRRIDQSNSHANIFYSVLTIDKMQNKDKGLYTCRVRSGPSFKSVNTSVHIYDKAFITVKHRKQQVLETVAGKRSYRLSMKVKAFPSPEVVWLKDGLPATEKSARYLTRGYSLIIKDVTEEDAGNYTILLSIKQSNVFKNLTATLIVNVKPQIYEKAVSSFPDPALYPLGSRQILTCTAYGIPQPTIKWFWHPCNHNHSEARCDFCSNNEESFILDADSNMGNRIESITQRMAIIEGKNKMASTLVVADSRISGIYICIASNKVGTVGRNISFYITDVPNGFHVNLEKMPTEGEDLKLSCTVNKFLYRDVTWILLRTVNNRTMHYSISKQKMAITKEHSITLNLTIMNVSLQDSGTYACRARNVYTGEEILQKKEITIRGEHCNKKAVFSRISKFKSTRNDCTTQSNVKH

Kd [1]: 0.26 nM
koff [1]: 8.4e-05 s⁻¹
kon [1]: 330000 M⁻¹ s⁻¹
Kd [2]: 0.23 nM and 0.26 nM
koff [2]: 7.9e-05 s⁻¹ and 8.4e-05 s⁻¹
kon [2]: 350000 M⁻¹ s⁻¹ and 330000 M⁻¹ s⁻¹
B1: 27H9 (antibody, human IgG1, lambda, V domains shown)
VH: EVQLLESGGGLVQPGGSLRLSCAASGFTFRDYSMSWVRQAPGKGLEWVSAISWNGDSTYYAESAKGRFTISRDNSKNTLYLQMNSLRAEDTAVYYCAKSWATPIESLYYYGSDYWGQGTLVTVSS
VL: SYELTQPLSVSVALRQTARITCGGNNIGSQTAQWYQQKPGQAPVLVIYANNRRPSGIPERFSGSKSGNTATLTISRAQAEDEADYYCQVWDESTQAIVFGGGTKLTVLG
notes: also called 27H9 WT; 27H9 WT 23/07

kd IMPROVEMENT (against parent 21B3) [3]: 1.12
B2: 27H9 Fab (Fab, V domains shown)
VH: B1 VH
VL: SYELTQPLSVSVALRQTARITCGGNNIGSQTAQWYQQKPGQAPVLVIYANNRRPSGIPERFSGSKSGNTATLTISRAQAEDEADYYCQVWDESTQAIVFGGGTKLTVL
notes: also called 27H9_VH

Kd [4]: 0.21 nM
koff [4]: 0.00011 s⁻¹
kon [4]: 520000 M⁻¹ s⁻¹
B3: 21B3 AAA (antibody, human IgG1, lambda, V domains shown)
VH: B1 VH with V2L, L5V, A64M, S75A, R87K, A88S, S112M, Q117K
VL: B1 VL with P7S, L8P, R19K, R76G, E92G, K104H
notes: AAA mutation in the Fc region

Kd [1]: 0.32 nM
koff [1]: 0.00017 s⁻¹
kon [1]: 540000 M⁻¹ s⁻¹
Kd [5]: 0.0848 nM
koff [5]: 4.73e-05 s⁻¹
kon [5]: 558000 M⁻¹ s⁻¹
Kd [4]: 0.32 nM
koff [4]: 0.00017 s⁻¹
kon [4]: 540000 M⁻¹ s⁻¹
fold change of KD against parent antibody 13B4 [6]: ~5 fold
B4: 21B3 (antibody, V domains shown)
VH: B1 VH with V2L, L5V, A64M, S75A, R87K, A88S, S112M, Q117K
VL: B2 VL with P7S, L8P, R19K, R76G, E92G, K104H
notes: also called 21B3 WT; antibody 21B3

kd IMPROVEMENT (against parent 21B3) [3]: 0.97
B5: 25G9 Fab (Fab, V domains shown)
VH: B1 VH with S52T, N54S, A64V, S112T, Q117K
VL: B2 VL with T17A, E92D
notes: also called 25G9_VH

Kd [1]: 0.16 nM
koff [1]: 0.00014 s⁻¹
kon [1]: 910000 M⁻¹ s⁻¹
B6: 27H6 (antibody, human IgG1, lambda, V domains shown)
VH: B1 VH with V2L, L5V, R30S, M34A, N54S, A64V, S71F
VL: B1 VL with T17A, R19K, E80G, E92G
notes: also called 27H6 WT; antibody 27H6

kd IMPROVEMENT (against parent 21B3) [3]: 0.96
B7: 27H6 Fab (Fab, V domains shown)
VH: B1 VH with V2L, L5V, R30S, M34A, N54S, A64V, S71F
VL: B2 VL with T17A, R19K, E80G, E92G
notes: also called 27H6_VH

kd IMPROVEMENT (against parent 21B3) [3]: 1.3
B8: 27G9 Fab (Fab, V domains shown)
VH: B1 VH with M34A, N54S, A64L, Q117K
VL: B2 VL with R15G, R19K, D91E, K104H
notes: also called 27G9_VH

Kd [4]: 0.51 nM
koff [4]: 0.00015 s⁻¹
kon [4]: 290000 M⁻¹ s⁻¹
fold reduced binding affinity [7]: ~2 fold
B9: 27H9 NG/NA AAA (antibody, human IgG1, lambda)
heavy: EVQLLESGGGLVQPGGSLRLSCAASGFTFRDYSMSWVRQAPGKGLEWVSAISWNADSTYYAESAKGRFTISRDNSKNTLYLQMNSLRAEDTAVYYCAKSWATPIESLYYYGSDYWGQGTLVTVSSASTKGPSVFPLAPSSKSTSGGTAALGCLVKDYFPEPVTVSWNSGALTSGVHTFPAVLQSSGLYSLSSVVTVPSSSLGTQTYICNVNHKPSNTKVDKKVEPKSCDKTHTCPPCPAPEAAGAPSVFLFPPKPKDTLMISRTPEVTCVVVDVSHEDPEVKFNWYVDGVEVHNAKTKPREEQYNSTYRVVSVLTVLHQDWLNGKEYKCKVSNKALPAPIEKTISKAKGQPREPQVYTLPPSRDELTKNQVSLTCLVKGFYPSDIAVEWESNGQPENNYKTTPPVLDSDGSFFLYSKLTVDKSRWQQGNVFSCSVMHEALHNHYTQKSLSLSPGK
light: SYELTQPLSVSVALRQTARITCGGNNIGSQTAQWYQQKPGQAPVLVIYANNRRPSGIPERFSGSKSGNTATLTISRAQAEDEADYYCQVWDESTQAIVFGGGTKLTVLGQPKAAPSVTLFPPSSEELQANKATLVCLISDFYPGAVTVAWKADSSPVKAGVETTTPSKQSNNKYAASSYLSLTPEQWKSHRSYSCQVTHEGSTVEKTVAPTECS
notes: also called 27H9_NA_+_AAA; 27H9 NA + AAA

Kd [1]: 0.25 nM
koff [1]: 8.2e-05 s⁻¹
kon [1]: 340000 M⁻¹ s⁻¹
B10: 27H4 (antibody, human IgG1, lambda, V domains shown)
VH: B1 VH with V2L, L5V, A64L, S75A
VL: B1 VL with R15G, D91E, E92D
notes: also called 27H4 WT; antibody 27H4

Kd [2]: 0.36 nM
koff [2]: 0.00013 s⁻¹
kon [2]: 370000 M⁻¹ s⁻¹
B11: 27H9 NG/QG (antibody, human IgG1, lambda, V domains shown)
VH: B1 VH with N54Q
VL: B1 VL

Kd [2]: 0.39 nM
koff [2]: 0.00011 s⁻¹
kon [2]: 290000 M⁻¹ s⁻¹
Kd [4]: 0.51 nM
koff [4]: 0.00015 s⁻¹
kon [4]: 290000 M⁻¹ s⁻¹
B12: 27H9 NG/NA (antibody, human IgG1, lambda)
heavy: not shown
light: B9 light

kd IMPROVEMENT (against parent 21B3) [3]: 0.94
B13: 25D4 Fab (Fab, V domains shown)
VH: B1 VH with M34A, A64V, S75A
VL: B2 VL with R15G, R76G, D91A, E92A
notes: also called 25D4_VH

kd IMPROVEMENT (against parent 21B3) [3]: 1
B14: 25F11 Fab (Fab, V domains shown)
VH: B1 VH
VL: B2 VL with T17A, D91E, E92A
notes: also called 25F11_VH

kd IMPROVEMENT (against parent 21B3) [3]: 1.06
B15: 27H4 Fab (Fab, V domains shown)
VH: B1 VH with V2L, L5V, A64L, S75A
VL: B2 VL with R15G, D91E, E92D
notes: also called 27H4_VH
